The values below come from patent US20100129807A1 (published 2010).

Where no end group is shown, it is not given here.

In the experiment the target is T1, bacterial repressor protein LexA (UniProt P0A7C2 1-202).
T1 construct: One entry is used for LexA in all assays; also called LexA target (pEG202); LexA bait
T1 sequence: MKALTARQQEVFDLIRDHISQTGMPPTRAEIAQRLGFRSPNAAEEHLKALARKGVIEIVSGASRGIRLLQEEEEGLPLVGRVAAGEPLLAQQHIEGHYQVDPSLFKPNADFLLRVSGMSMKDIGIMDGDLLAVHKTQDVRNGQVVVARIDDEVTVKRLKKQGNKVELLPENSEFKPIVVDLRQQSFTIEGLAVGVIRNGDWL
Nature of the experiment: SPR (BiacoreX), L2 peptide immobilised on a CM5 chip, LexA injected. On the technique in general: SPR reads the build-up and loss of mass on a sensor chip optically.

B1: synthetic linear L2 peptide with a TAT importer sequence at the N-terminal (NH2-GRKKRRQRRRPPQ-SRSWDLPGEY) (peptide)
peptide: H-GRKKRRQRRRPPQSRSWDLPGEY
notes: Immobilised on a CM5 sensor chip for SPR
Consider B1, for which the Kd (commonly the free concentration of one partner at which half of the binding sites on the other are occupied at equilibrium, for simple one-to-one binding) was determined as 1700 nM.
